These are literature values, as cited in PMC4464844.

One may read the pKa as the negative logarithm of the acid dissociation constant.

Data set [1] concerns the target Tyr9 (UniProt position 9, KPKLHYFNGRG).
For data set [2], the target named is Tyr9 (UniProt position 9, KPKLHYFNARG).
In data set [3] the target is Tyr9 (UniProt position 9, RPKLHYPNGRG).

As for “Glutathione transferase A1-1 GIMFhelix mutant (Homo sapiens; A12G;L107I;L108M;V111F;residues 208-222 replaced by the GSTA4-4 sequence)”, the pKa in the data set with Tyr9 [1] is 7.3.

“Glutathione transferase A1-1 (hGSTA1-1) (Homo sapiens)”: the pKa with Tyr9 [2] is 8.1.

“Glutathione transferase A4-4 (hGSTA4-4) (Homo sapiens)”: in the data set with Tyr9 [3], the pKa is given as 6.7.
